# Laboratory results as given in paper PMC3315798 (Molecular Biology of the Cell, 2012).
# B1: GST-Cdc42p (Q61L, D122A) (natural protein)
# chain: not shown
# B2: GST-Cdc42p (V36M, Q61L) (natural protein)
# chain: not shown
# B3: GST-Cdc42p-Q61L (GTP-locked mutant) (natural protein)
# chain: not shown
# Biological target: T1, Fus2p-FLAG (full-length Fus2p, internally FLAG-epitope tagged at residue 104) (S. cerevisiae, UniProt Q05670 1-677)
# T1 sequence (looked up): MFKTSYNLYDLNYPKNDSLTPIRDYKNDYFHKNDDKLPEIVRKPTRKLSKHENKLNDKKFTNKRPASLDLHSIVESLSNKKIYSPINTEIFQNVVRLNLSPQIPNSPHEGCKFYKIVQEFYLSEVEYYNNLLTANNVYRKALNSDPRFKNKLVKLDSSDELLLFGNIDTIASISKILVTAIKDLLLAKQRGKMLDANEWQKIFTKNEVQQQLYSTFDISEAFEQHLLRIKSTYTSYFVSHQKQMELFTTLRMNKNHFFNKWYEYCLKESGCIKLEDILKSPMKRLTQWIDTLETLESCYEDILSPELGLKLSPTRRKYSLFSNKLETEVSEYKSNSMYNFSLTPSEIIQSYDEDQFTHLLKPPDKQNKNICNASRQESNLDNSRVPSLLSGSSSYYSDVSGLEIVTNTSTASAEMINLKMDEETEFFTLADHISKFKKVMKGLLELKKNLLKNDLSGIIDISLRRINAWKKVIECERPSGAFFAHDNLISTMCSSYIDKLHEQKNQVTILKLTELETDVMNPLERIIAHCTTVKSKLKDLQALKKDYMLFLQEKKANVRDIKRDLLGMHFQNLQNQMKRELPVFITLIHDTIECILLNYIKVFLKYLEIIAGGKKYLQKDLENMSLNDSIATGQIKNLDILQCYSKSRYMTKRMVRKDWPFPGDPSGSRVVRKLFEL
# Test: co-IP
Binder,% binding relative to wild-type Cdc42p (so in the source),fold level bound compared with Cdc42p-T17N or wild type
B1,4%,
B2,7%,
B3,,~20 fold
